Assay [1] deals with HA-tagged bovine pancreatic RNase N113S expressed in CHO cells (bovine) (UniProt P61823).
In assay [2] the target is HA-tagged bovine pancreatic RNase expressed in CHO cells (bovine) (UniProt P61823).

Take “HA-tagged bovine pancreatic RNase N113S expressed in CHO cells (from UniProt P61823 27-150) (enzyme)”: in assay [1], the efficiency of secretion after a 60-min chase (pulse-chase, CHO cells) came to 72%.
In assay [2], “HA-tagged bovine pancreatic RNase expressed in CHO cells (from UniProt P61823 27-150) (enzyme)” had an efficiency of secretion after a 60-min chase (pulse-chase, CHO cells) of 45%.
